Test results: patent US6476188
Positions count from the first letter of the chain named.

B1: recombinant tau mutant hamster CK1ε (Arg178Cys) with N-terminal S•Tag and His-Tag fusions, captured on S-protein agarose (protein)
chain: MELRVGNKYRLGRKIGSGSFGDIYLGANIASGEEVAIKLECVKTKHPQLHIESKFYKMMQGGVGIPSIKWCGAEGDYNVMVMELLGPSLEDLFNFCSRKFSLKTVLLLADQMISRIEYIHSKNFIHRDVKPDNFLMGLGKKGNLVYIIDFGLAKKYRDARTHQHIPYRENKNLTGTACYASINTHLGIEQSRRDDLESLGYVLMYFNLGSLPWQGLKAATKRQKYERISEKKMSTPIEVLCKGYPSEFSTYLNFCRSLRFDDKPDYSYLRQLFRNLFHRQGFSYDYVFDWNMLKFGAARNPEDVDRERREHEREERMGQLRGSATRALPPGPPTGATANRLRSAAEPVASTPASRIQQAGNTSPRAISRADRERKVSMRLHRGAPANVSSSDLTGRQEVSRISASQTSVPFDHLGK
B2: recombinant wild-type hamster CK1ε with N-terminal S•Tag and His-Tag fusions, captured on S-protein agarose (protein)
chain: B1 chain with C178R
B3: DOUBLETIME protein (DBT), Drosophila, in vitro translated from dbt cDNA P12, 35S-labeled (protein)
chain: MELRVGNKYRLGRKIGSGSFGDIYLGTTINTGEEVAIKLECIRTKHPQLHIESKFYKTMQGGIGIPRIIWCGSEGDYNVMVMELLGPSLEDLFNFCSRRFSLKTVLLLADQMISRIDYIHSRDFIHRDIKPDNFLMGLGKKGNLVYIIDFGLAKKFRDARSLKHIPYRENKNLTGTARYASINTHLGIEQSRRDDLESLGYVLMYFNLGALPWQGLKAANKRQKYERISEKKLSTSIVVLCKGFPSEFVNYLNFCRQMHFDQRPDYCHLRKLFRNLFHRLGFTYDYVFDWNLLKFGGPRNPQAIQQAQDGADGQAGHDAVAAAAAVAAAAAASSHQQQQHKVNAALGGGGGSRAQQQLQGGQTLAMLGGNGGGNGSQLIGGNGLNMDDSMAATNSSRPPYDTPERRPSIRMRQGGGGGGGGVGVGGMQSGGGGGGVGNAK

Legend:
[1] = molecular target: mouse PERIOD1 (mPER1), in vitro translated, 35S-methionine-labeled, O35973
mouse PERIOD1 (mPER1), in vitro translated, 35S-methionine-labeled, O35973, sequence (O35973 whole entry, looked up): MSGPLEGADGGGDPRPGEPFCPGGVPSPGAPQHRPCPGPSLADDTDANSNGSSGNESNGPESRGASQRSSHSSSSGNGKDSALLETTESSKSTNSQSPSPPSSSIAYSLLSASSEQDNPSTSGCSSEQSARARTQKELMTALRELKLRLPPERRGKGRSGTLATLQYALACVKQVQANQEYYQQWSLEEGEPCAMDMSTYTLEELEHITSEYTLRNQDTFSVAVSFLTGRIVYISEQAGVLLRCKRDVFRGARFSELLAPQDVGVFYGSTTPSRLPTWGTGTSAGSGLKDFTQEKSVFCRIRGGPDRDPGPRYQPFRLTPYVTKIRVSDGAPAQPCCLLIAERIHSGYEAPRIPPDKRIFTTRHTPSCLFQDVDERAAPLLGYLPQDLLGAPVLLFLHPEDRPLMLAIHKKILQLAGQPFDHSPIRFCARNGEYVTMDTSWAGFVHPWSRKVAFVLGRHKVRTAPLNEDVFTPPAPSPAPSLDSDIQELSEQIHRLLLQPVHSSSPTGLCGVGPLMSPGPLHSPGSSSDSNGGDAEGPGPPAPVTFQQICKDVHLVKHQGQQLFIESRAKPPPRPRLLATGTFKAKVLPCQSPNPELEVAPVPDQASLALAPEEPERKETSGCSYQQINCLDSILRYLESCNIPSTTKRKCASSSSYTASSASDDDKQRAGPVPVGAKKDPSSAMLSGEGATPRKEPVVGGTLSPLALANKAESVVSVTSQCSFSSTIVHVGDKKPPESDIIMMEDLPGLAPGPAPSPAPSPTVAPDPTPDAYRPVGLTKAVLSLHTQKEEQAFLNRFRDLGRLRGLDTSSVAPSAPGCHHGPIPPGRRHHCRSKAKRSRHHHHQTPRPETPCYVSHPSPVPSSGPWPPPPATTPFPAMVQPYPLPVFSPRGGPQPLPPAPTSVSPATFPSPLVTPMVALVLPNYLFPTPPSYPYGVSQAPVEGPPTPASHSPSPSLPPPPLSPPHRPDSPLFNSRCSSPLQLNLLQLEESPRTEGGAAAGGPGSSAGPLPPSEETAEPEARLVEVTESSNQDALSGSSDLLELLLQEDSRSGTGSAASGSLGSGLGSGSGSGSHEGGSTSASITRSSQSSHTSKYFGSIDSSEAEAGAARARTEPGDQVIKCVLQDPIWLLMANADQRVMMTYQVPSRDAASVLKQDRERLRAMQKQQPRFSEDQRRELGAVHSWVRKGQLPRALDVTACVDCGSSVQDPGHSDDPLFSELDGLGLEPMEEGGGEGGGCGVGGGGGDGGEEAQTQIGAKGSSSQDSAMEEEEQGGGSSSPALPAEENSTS

[2] = molecular target: phosvitin (Sigma #P-1253)
[3] = molecular target: mouse PERIOD2 (mPER2), in vitro translated, 35S-methionine-labeled, O54943
mouse PERIOD2 (mPER2), in vitro translated, 35S-methionine-labeled, O54943, sequence (O54943 whole entry, looked up): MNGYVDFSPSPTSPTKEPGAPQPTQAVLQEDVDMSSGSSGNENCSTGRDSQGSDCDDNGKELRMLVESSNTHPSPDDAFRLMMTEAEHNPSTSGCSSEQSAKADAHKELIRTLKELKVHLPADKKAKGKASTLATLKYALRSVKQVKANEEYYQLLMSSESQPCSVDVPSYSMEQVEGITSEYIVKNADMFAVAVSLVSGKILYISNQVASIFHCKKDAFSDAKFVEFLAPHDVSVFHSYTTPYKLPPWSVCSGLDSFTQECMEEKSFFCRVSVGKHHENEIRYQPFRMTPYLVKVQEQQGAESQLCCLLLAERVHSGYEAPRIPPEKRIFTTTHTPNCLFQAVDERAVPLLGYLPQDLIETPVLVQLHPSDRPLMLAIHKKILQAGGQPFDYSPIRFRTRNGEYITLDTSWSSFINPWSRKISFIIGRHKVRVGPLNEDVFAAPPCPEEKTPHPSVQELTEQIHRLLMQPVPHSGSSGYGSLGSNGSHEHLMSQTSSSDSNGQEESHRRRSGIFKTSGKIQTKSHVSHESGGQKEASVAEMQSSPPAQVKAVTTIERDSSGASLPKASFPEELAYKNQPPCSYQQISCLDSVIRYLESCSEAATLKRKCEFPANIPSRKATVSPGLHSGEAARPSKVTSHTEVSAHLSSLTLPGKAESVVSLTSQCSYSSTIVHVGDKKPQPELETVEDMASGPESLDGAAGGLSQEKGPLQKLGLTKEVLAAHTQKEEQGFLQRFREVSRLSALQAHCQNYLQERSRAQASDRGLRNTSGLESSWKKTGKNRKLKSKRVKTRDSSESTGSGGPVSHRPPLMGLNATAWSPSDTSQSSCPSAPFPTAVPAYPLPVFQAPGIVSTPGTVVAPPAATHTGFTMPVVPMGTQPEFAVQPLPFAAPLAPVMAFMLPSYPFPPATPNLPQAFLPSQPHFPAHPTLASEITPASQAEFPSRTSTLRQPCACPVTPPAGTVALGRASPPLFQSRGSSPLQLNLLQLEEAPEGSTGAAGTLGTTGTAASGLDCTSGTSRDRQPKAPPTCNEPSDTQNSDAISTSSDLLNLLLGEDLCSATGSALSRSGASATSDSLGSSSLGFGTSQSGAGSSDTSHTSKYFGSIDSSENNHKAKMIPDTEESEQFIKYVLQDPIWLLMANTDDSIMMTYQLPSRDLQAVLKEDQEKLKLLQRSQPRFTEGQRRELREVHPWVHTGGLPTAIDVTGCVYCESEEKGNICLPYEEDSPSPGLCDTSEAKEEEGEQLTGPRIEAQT

[4] = molecular target: dephosphorylated α-casein (Sigma #C-8032)
[5] = molecular target: PERIOD (PER) protein, Drosophila, expressed in S2 cells from hs-per, P07663

Row | Protein | affinity kinase assay, phosphorylation of bound substrate [1] | Km [2] | Vmax [2] | fold reduction in Vmax against wild-type [2] | affinity kinase assay, phosphorylation of bound substrate [3] | 32P signal intensity of phosphorylated substrate, wild-type relative to tau enzyme [4] | 32P signal intensity of phosphorylated substrate, wild-type relative to tau enzyme [2] | phosphorylation of PER in vitro [5]
1 | B1 | there is a clear attenuation in phosphorylation of mPER1 and mPER2 by the tau mutant enzyme as compared to wild type CK1ε | a Km of 29.8 µM | a Vmax of 52.5 µmoles/µg/5 minutes | the tau mutation causes an eight-fold reduction in the Vmax of CK1ε | there is a clear attenuation in phosphorylation of mPER1 and mPER2 by the tau mutant enzyme as compared to wild type CK1ε |  |  | 
2 | B2 | this affinity kinase assay demonstrates that CK1ε phosphorylates mammalian PERIOD proteins | the Km is 55.6 µM | the Vmax is 400 µmoles/µg/5 minutes |  | this affinity kinase assay demonstrates that CK1ε phosphorylates mammalian PERIOD proteins | The wild-type CK1ε kinase produces an 8-fold and 4-fold greater signal intensity, for phosvitin and α-casein respectively, relative to that produced by the tau enzyme. | The wild-type CK1ε kinase produces an 8-fold and 4-fold greater signal intensity, for phosvitin and α-casein respectively, relative to that produced by the tau enzyme. | 
3 | B3 |  |  |  |  |  |  |  | the formation of a PER/DBT complex leads to DBT-dependent phosphorylation of PER in vitro
